From US20090068174A1, “THERAPEUTIC ALKALINE PROTEASE COMPOSITIONS AND USE IN FACILITATING THE TRANSPORT OF AGENTS ACROSS THE GASTROINTESTINAL MUCOSAL LINING” (Kansas University Medical Center Research Institute, Inc., priority 2007, published 2009) come the findings set out here.

The target of this test is T1, mouse recombinant IFN-γ (Mus musculus, UniProt P01580).
T1 sequence (P01580 23-155): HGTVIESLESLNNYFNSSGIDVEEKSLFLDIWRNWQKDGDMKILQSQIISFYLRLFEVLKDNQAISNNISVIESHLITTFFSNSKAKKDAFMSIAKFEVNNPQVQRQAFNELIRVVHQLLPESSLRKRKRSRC
Kind of test: Cleavage of mouse IFN-γ (Western blotting). The test is classed as biochemical. Particulars: 100 ng cytokine, 37° C. overnight, Western blot. The procedure: Degradation of mouse recombinant TNF-α: (A) or IFN-γ (B) following treatment with: the protease powder prepared according to Example 1 (preparation), purified alkaline protease (AP); Pseudomonas elastase (E); and buffered-treated control (C). The cytokines (100 ng each) were incubated at 37° C. overnight with the indicated quantities (ng) of enzymes, and then analyzed by Western blotting for evidence of degradation. A scan of AP-treated mouse TNF-α (left-hand Western blot) showing the decreasing density of the top band as a function of alkaline protease concentration (C).
Because the anti-TNF-α used here was specific for an epitope located in the carboxyl terminus of the cytokine, the pattern of cleavage is most consistent with attack at the amino terminus of TNF-α (e.g., there is a loss of molecular mass without a loss of the epitope recognized by the antibody).
(Immunoblotting shows a protein as a band on a membrane.)

B1: Alkaline Protease: Aspergillus oryzae alkaline protease (oryzin), SEQ ID NO: 2, purified from the protease powder of Example 1 (protein, listed as Aspergillus oryzae)
chain: MQSIKRTLLLLGAILPAVLGAPVQETRRAAEKLPGKYIVTFKPGIDEAKIQEHTTWATNIHQRSLERRGATGGDLPVGIERNYKINKFAAYAGSFDDATIEEIRKNEDVAYVEEDQIYYLDGLTTQKSAPWGLGSISHKGQQSTDYIYDTSAGEGTYAYVVDSGVNVDHEEFEGRASKAYNAAGGQHVDSIGHGTHVSGTIAGKTYGIAKKASILSVKVFQGESSSTSVILDGFNWAANDIVSKKRTSKAAINMSLGGGYSKAFNDAVENAFEQGVLSVVAAGNENSDAGQTSPASAPDAITVAAIQKSNNRASFSNFGKVVDVFAPGQDILSAWIGSSSATNTISGTSMATPHIVGLSLYLAALENLDGPAAVTKRIKELATKDWKDVKGSPNLLAYNGNA
Turning to B1, the “Cleavage of mouse IFN-γ” value was “partial degrades mouse IFN-γ”. Also, the “Cleavage of mouse IFN-γ” value (listed as alkaline protease (AP)) was “evidenced the same substrate specificity”.
